Peptide text beside a SMILES is read from it.
Legend:
[1] = biological target: T1, zfPepT1b (Danio rerio, UniProt Q7SYE4); experiment: two-electrode voltage clamp, transport current, Xenopus oocytes; type: cell-based; conditions: 1 mmol/L, pH 7.6, -60 mV
T1 construct: gene slc15a1b; complete ORF in pSPORT1, cRNA-injected Xenopus laevis oocytes
T1 sequence (Q7SYE4 1-718): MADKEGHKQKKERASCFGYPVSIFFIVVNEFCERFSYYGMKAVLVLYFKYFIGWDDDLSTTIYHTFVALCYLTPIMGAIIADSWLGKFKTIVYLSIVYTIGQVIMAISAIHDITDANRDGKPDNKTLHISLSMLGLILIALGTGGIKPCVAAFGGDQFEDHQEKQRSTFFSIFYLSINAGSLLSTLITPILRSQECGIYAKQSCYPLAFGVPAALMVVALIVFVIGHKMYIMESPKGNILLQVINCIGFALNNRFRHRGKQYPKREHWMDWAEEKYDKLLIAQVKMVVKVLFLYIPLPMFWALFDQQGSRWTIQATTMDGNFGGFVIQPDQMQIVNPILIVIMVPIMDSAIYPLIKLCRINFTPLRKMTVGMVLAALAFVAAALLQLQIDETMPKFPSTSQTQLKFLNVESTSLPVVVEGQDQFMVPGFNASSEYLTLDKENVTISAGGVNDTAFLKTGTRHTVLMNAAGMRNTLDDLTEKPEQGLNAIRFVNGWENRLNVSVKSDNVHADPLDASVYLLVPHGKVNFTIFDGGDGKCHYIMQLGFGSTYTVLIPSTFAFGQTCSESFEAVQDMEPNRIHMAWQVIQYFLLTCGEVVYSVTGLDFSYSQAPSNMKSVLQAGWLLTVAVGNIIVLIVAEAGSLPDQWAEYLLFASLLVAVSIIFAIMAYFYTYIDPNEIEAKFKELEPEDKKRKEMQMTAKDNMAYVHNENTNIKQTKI

[2] = substrate: NCCCC[C@H](N)C(=O)NCC(=O)O; experiment: as above; type: cell-based, Salmo salar; conditions: pH 7.6, -140 mV, strongly voltage dependent
[3] = substrate: NCC(=O)N[C@@H](CC(=O)O)C(=O)O; experiment: as above; type: cell-based, Danio rerio; conditions: pH 7.6, -60 mV, 18 degC incubation of oocytes, proton-coupled transport, 18.0 °C
Excerpt: (§1) two-electrode voltage clamp, transport current, Xenopus oocytes on zfPepT1a

[4] = substrate: NCCCC[C@H](N)C(=O)NCC(=O)O; experiment: as above; type: cell-based, Danio rerio; conditions: pH 7.6, -60 mV
Excerpt: as §1

[5] = substrate: NCCCC[C@H](N)C(=O)NCC(=O)O; experiment: cells, lysate or membranes; conditions: pH 7.6, -140 mV, estimate, saturation not reached up to 30 mmol/L

Molecule: NCC(=O)N[C@@H](CCC(N)=O)C(=O)O [Gly-Gln] (H-Gly-Gln-OH)
- two-electrode voltage clamp, transport current, Xenopus oocytes ([1]; reference substrate): Gly-Lys and Lys-Gly currents are significantly reduced in amplitude if compared to those generated by Gly-Gln

Molecule: CSCC[C@H](NC(=O)[C@@H](N)CCCCN)C(=O)O [Lys-Met]
- two-electrode voltage clamp, transport current, Xenopus oocytes [1]: in zebrafish PepT1b Lys-Met and Met-Lys show comparable currents

B1: asPepT1b (Salmo salar) (protein)
chain: MTDIDVKKSKRKVDVCGYPLSIFFIVVNEFCERFSYYGMRAVLVLYFRYFLKWDDDLSTSIYHTFIALCYLTPILGAIVADSWLGKFKTIVYLSIVYTVGQVVMAVSAIHDITDTDRDGTPDNMTFHVAMSMVGLFLIALGTGGIKPCVAAFGGDQFEEHQEKQRSTFFSIFYLSINAGSLLSTVITPILRGQECGIHSQQKCYPLAFGVPAALMVVALIVFIMGSGMYNKTAPKGNIMLEVCKCIGFAVKNRFRHRSKKFPKREHWMDWADEKYDKLLVAQVKMVLKVMFLYIPLPMFWTLFDQQGSRWTLQATTMDGNFGILTVQPDQMQTVNPILILALVPIMDSLVYPLIKKCHLNFTPLKRMTVGMLIAALAFVAAALLQLQIDQTLPKLPQGVAGQVKFLNLNSAPLTLTIDGTIDVSVPAHQVNTGDYLTFDKSVRVVFNKNTSTGTDLILMSQTRRTALVSPTLDMNLVYDLSKKPDDGMNAIRFVNGLGSALNVTLGVGDIAPLAVSNYSLVPQGKAEFTIMNSGGASCLYSIDLGFGSAFTLLIPSTFTIGSPDCWQAIQVVEDIQPNTIHMGWQIPQYFLMTGGEVVFSVTGLEFSYSQAPSNMKSVLQAGWLFTVAVGNIIVLIVAEAAQLPDQWAEYILFASLLVVVCIVFAIMSYFYTYTDPAEIEAEFRQPEHGPERKRDQVEMERKDSDCSKSSKGSDMKKKDSVVEQLNQEVKQSKM
notes: complete ORF in pSPORT1, cRNA-injected Xenopus laevis oocytes
- K0.5 [2]: 0.18 ± 0.01 mmol/L

B2: zfPepT1a (Danio rerio) (protein)
chain: MPDSKMDETKKKKKKTAECCGYPISIFFIVVNEFCERFSYYGMRAVLVLYFRYFLLWDDDLATSIYHAFVALCYLTPILGAIIADSWLGKFKTIIYLSIVYAVGQVVMAVSTIHDITDANRDGTPDNFTLHIALSMLGLVLIALGTGGIKPCVAAFGGDQFQEHQSRQLNTFFSVFYLCINAGSLLSTLITPVLRAQECGIHTQQQCYPLAFGVPAALMVVSLVVFIAGSGMYTKTAPEGNIMGSVCKCIWFALNNRFRHRSDIYPKREHWMDWAEEKYDKLLIAQIKMVLKVLFLYIPLPMFWTLFDQKGSRWTLQATTMTGDFGGFVLQPDQMQTVNPILILTLVPIMDRIIFPLIKKCGLNFSPLKRMTVGMLFAATAFIAAALVQMEIDKTLPNFPSSSESQLKVVNMHSESLIVTVPSQEPLLIGSFESSPDYITFDQQDIRLAFNTTPEINKDLSLIKGSRQTLIIPSEPAEMYLKEDIKSKPKEGKNAVRFVNGWTAYLNITNLESSLQPSETSNYTLVSQGMRKFTLTDGIQSCEFSRKFGFGSSYTFLIPSDLFSTDCESIKEIEDMQPNSVHMALQIPQYFLITTGEVMFSVTGLQFSYSQAPKNMKSVLQAGWLCTNAVGNIIVLIVAELGKLPKQWAEYVLFASLLVAVSIIFSIMAYFYTYIDPAEIEAEILKQQETDPDKKKKKETLEMEEKENEQEIKQTKI
notes: as for B1
- K0.5 [3]: 5.89 ± 2.14 mmol/L
- K0.5 [4]: 18.35 ± 3.51 mmol/L

B3: asPepT1a (Salmo salar) (protein)
chain: MTDEEVVKKGKSKEVCGYPLSIFFIVVNEFCERFSYYGMRAVLVLYFRYFLRFDDDLATSIYHTFVALCYLTPILGAVVADSWLGKFKTIIYLSIVYAIGQVVMAVSAIHDITDTDRDGTPDNLTLHIVLSMVGLLLIALGTGGIKPCVAAFGGDQFQDHQAKQRSTFFSVFYLCINGGSLLSTIITPILRGQECGIHSQQKCYPLAFGVPAALMVVALVVFIIGSGMYHKTEPQGNIMLDVCKCIGFAVKNRFRHRSSSYPKRTHWMDWAEEKYEKLLIAQIKMVLKVLFLYIPLPMFWTLFDQKGSRWTLQATTMDGNFGSLILQPDQMQTVNPILILTLVPIMDSVVYPLIKKCGLNFTPLRRMTVGMFLAAMAFVAAALVQIQIDKTLPTFPSSSQSQLKLLNMGSIPLTVTLPNNDPFVIEAAKANANYLTFEEESINVSFQSPAISRTISLAKGKRQTLLIPSNLSAPMWEMTDDLMAKPEQGANAIRFVNGMAGAVNVSTFGSIEYSSASNYSLISNGKATFTITNGANTCEYSREFGFGSSYTLLIPSHFAWGLTCSESISGVEDIQPNSFHMGWQIPQYFLITCGEVVFSVTGLEFSYSQAPSNMKAVLQAGWLFTVAIGNFIVLIVAEIAQIEEQWAEFVLFASLLVAVCVIFSIMAYFYTYMDPAEIEAQFTDNGGKEESDKEELQMQKKDVVDHHNEDDEAKQTKM
- K0.5 [5]: 6.33 ± 0.78 mmol/L

— article PMC10475540, “The teleost fish PepT1-type peptide transporters and their relationships with neutral and charged substrates” (Frontiers in Physiology, 2023)
